Assay results as given in patent US20150139999A1 (RUTGERS THE STATE UNIVERSITY OF NEW JERSEY, published 2015).

Target: T1, B18-FL (Vaccinia virus strain Western Reserve B18 protein with a FLAG epitope at the C terminus, sec (Vaccinia virus strain Western Reserve, UniProt P25213 20-351))
T1 construct: mature
Assay: covalent crosslinking in solution, SDS-PAGE

B1: [^32P]-His-Strep-IFN-λ1-P (secreted human IFN-λ1 with N-terminal His-Strep tag and C-terminal phosphorylation site) (ligand)
chain: HHHHHHPDHWSHPQFEKGPVPTSKPTTTGKGCHIGRFKSLSPQELASFKKARDALEESLKLKNWSCSSPVFPGNWDLRLLQVRERPVALEAELALTLKVLEAAAGPALEDVLDQPLHTLHHILSQLQACIQPQPTAGPRPRGRLHHWLHRLQEAPKKESAGCLEASVTFNLFRLLTRDLKYVADGNLCLRTSTHPESTRRASVA
notes: mature; also called His-Strep-IFN-λ1J-P
Does B1 bind?
Result: no binding
